{
  "source": "paper doi:10.1101/2025.11.17.688911",
  "about": "“Structure and mechanism of microtubule stabilization and motor regulation by MAP9” (bioRxiv, 2025)",
  "binders": {"B1": {"name": "full-length (FL) human MAP9 (GFP::Human MAP9::strepII) (natural protein, UniProt Q49MG5 1-647, looked up)", "chain": "MSDEVFSTTLAYTKSPKVTKRTTFQDELIRAITARSARQRSSEYSDDFDSDEIVSLGDFSDTSADENSVNKKMNDFHISDDEEKNPSKLLFLKTNKSNGNITKDEPVCAIKNEEEMAPDGCEDIVVKSFSESQNKDEEFEKDKIKMKPKPRILSIKSTSSAENNSLDTDDHFKPSPRPRSMLKKKSHMEEKDGLEDKETALSEELELHSAPSSLPTPNGIQLEAEKKAFSENLDPEDSCLTSLASSSLKQILGDSFSPGSEGNASGKDPNEEITENHNSLKSDENKENSFSADHVTTAVEKSKESQVTADDLEEEKAKAELIMDDDRTVDPLLSKSQSILISTSATASSKKTIEDRNIKNKKSTNNRASSASARLMTSEFLKKSSSKRRTPSTTTSSHYLGTLKVLDQKPSQKQSIEPDRADNIRAAVYQEWLEKKNVYLHEMHRIKRIESENLRIQNEQKKAAKREEALASFEAWKAMKEKEAKKIAAKKRLEEKNKKKTEEENAARKGEALQAFEKWKEKKMEYLKEKNRKEREYERAKKQKEEETVAEKKKDNLTAVEKWNEKKEAFFKQKEKEKINEKRKEELKRAEKKDKDKQAINEYEKWLENKEKQERIERKQKKRHSFLESEALPPWSPPSRTVFAKVF", "notes": "human MAP9, full length; also called FL MAP9; ASAP; source: E. coli Rosetta (DE3), purified (Strep-Tactin XT; for structural studies also heparin HP and Superdex 200); not shown: GFP, N-terminal, kept"}},
  "key": {"[1]": {"biological_target": "T1, surface-immobilized biotinylated microtubules (pig, UniProt Q2XVP4 1-451; Q767L7 1-444, biotin (site not stated) | biotin (site not stated))", "assay": "TIRF microscopy, fluorescence intensity of GFP-tagged MAP on microtubules; biotinylated MTs held on a streptavidin-coated coverslip; MAP titrated in BRB80 (80 mM PIPES pH 6.8, 1 mM EGTA, 2 mM MgCl2; about 100 mM salt) with 1 mg/mL casein, 0.5% pluronic acid, no motors or ATP; intensity fit to the Langmuir isotherm", "settings": "both partners purified"}, "[2]": {"biological_target": "T1, surface-immobilized biotinylated …", "assay": "cell-based or functional assay"}},
  "data": [
    {"binder": "B1", "values": [
      {"measurement": "Kd", "setting": "[1]", "value": 61, "unit": "nM"},
      {"measurement": "depolymerization rate of MTs after removing free tubulin and GTP, with MAP9 kept in the chamber", "setting": "[2]", "value": 6, "unit": "fold"}
    ]}
  ]
}
